Measurements published in publication PMC4041915, “CBD binding domain fused γ-lactamase from Sulfolobus solfataricus is an efficient catalyst for (-) γ-lactam production” (BMC Biotechnology, 2014).

B1: Cbd-Linker-Gla (cbd-linker-gla fusion enzyme; (+) γ-lactamase Gla) (Saccharolobus solfataricus P2) (protein)
chain: MGIKLPTLEDLREISKQFNLDLEDEELKSFLQLLKLQLESYERLDSLPDYTPRVKYQRTLGRPPMKEENPYGALVWITSIKGKEEGKLKGKRICIKDNVMIAGIPMLNGSKMLEGFVPHMDATVVSRILDEAGEIVAKTTCEDLCFSGGSHTSYPWPVLNPRNPEYMAGGSSSGSAVAVASGYCDMAVGGDQGGSIRIPSSWVGIYGLKPTHGLVPYTGAFSIEPTLDHLGPMANTVKDVALLLEVIAGRDELDSRQPDSLPPPPVKPYSKLIDGDVKDMKVGIVKEGFNWSNSEKDVDELVLDSAKKLEDYGIKVEDTSIPLHRMGLDIWTPIAIEGATATMILGSGVGWGRKGLFETQIADFFGNSLKSRARDLPNTVKGVLMLGYLMIKMYNNRYYAKARNLSIVLKEAYDSALRKYDALIMPTTPMKAMRYKSEPGFDEYFIMALGMINNTAPFDVTGHPAMNIPVGYSNGLPVGLMIIGRHFEEDKVLKLANVFERIKK
B2: Gla-Linker-Cbd (gla-linker-cbd fusion enzyme; (+) γ-lactamase Gla) (Saccharolobus solfataricus P2) (protein)
chain: B1 chain

Substrate: O=C1NC2C=CC1C2
Test: purified protein
Settings: free enzyme, 50 mM phosphate pH 7.0, 70°C (standard assay), 4.6-32.2 mM substrate, racemate taken as the substrate (not stated for the kinetics), only (+) enantiomer hydrolysed

| Protein | Km [mM] | Km (preparation has a low-) [mM] |
| --- | --- | --- |
| B1 | 14.3 ± 1.6 |  |
| B2 |  | 5.7 ± 0.1 |
